# Measurements: US20060177918
# Test system: Myelin Basic Protein (Upstate USA, Inc. cat. no: 13-104)
row,Substance,increase in fluorescence over time (real-time kinase assay)
1,"PKCβII (Upstate USA, Inc.)",greater than 4 fold increase in fluorescence over time
2,"MAP kinase1/Erk1 (Upstate USA, Inc.)",greater than 4 fold increase in fluorescence over time
3,"MAP kinase2/Erk2 (Upstate USA, Inc.)",greater than 4 fold increase in fluorescence over time
